{"source": "patent US20220278152", "about": "“SPECTRALLY FILTERED PHOTODIODE PAIR” (UNIVERSITY OF MASSACHUSETTS, published 2022)", "key": {"Interferon gamma (IFN-γ)": {"biological_target": "Interferon gamma (IFN-γ) (Homo sapiens, UniProt P01579 P01579:24-166)", "sequence (P01579 24-166, one chain of several)": "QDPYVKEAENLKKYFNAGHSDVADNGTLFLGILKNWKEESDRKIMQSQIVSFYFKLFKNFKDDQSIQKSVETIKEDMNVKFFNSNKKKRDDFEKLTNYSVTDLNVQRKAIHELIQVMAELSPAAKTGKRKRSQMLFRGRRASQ", "test": "FRET ratiometric photodiode aptasensor; aptamer on AF555-streptavidin/biotin-BSA surface; signal change 0.1-10 pM, LOD 1 pM, saturated at 100 pM-1 nM; 1x PBS; reversible by 55 C water wash", "conditions": "tags: R&D Systems, recombinant human IFN-γ; chain copies: 2; label: Cy5 (5'), biotin (3'); hairpin (self-hybridizes without IFN-γ)", "from_the_text": "To package the PD array for ratiometric aptasensing experiments, a 50 μm tall PDMS microfluidic channel with one inlet and one outlet hole was fabricated via a standard SU-8 photolithography process, and then bonded the microfluidic channel over the PD array via O₂ plasma. Tubing was inserted into the inlet and outlet holes to allow for injection and removal of analytes. To achieve ratiometric aptasensing […], the surface of the array was functionalized by sequentially introducing BSA, AF555 conjugated streptavidin, and biotinylated Cy5 labeled IFN-γ DNA aptamers. After each analyte's respective incubation period, the extra unbonded analyte was removed by washing with 9 mL deionized water.\nFollowing this surface functionalization procedure, two aptasensing experiments were conducted where, in each experiment, the device was kept in 1×PBS and sequentially introduced 0.1 pM-1 nM analyte in 15-minute intervals followed by a water washing step and reintroduced analytes and water washing as 2nd round via the microfluidic channel (FID. 10a-c). During introducing each concentration, an upright fluorescence microscope was used to illuminate the PD array with pulses of 550/15 nm excitation light (Ilight=100%, 260 mW) which have tₒₙ/toff=18/162 s (i.e., 3 min period) to alleviate the photobleaching effect. […]"}, "Streptavidin": {"biological_target": "Streptavidin (UniProt P22629 P22629:25-183)", "sequence (P22629 25-183, one chain of several)": "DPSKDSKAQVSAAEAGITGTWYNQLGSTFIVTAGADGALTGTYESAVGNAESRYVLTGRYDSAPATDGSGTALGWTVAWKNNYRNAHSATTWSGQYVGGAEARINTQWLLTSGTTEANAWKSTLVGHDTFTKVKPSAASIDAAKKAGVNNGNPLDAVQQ", "test": "specificity control; 0.1 pM-1 nM free streptavidin, <5% signal change, 1x PBS; biotinylated aptamer already immobilised on surface streptavidin", "conditions": "tags: Sigma Aldrich; chain copies: 4; label: Cy5 (5'), biotin (3'); hairpin (self-hybridizes without IFN-γ)", "experimental": "After each analyte's respective incubation period, the extra unbonded analyte was removed by washing with 9 mL deionized water.\nFollowing this surface functionalization procedure, two aptasensing experiments were conducted where, in each experiment, the device was kept in 1×PBS and sequentially introduced 0.1 pM-1 nM analyte in 15-minute intervals followed by a water washing step and reintroduced analytes and water washing as 2nd round via the microfluidic channel (FID. 10a-c). During introducing each concentration, an upright fluorescence microscope was used to illuminate the PD array with pulses of 550/15 nm excitation light (Ilight=100%, 260 mW) which have tₒₙ/toff=18/162 s (i.e., 3 min period) to alleviate the photobleaching effect.\nFor the first experiment, streptavidin was sequentially introduced as a control to evaluate the specificity of the array. […] For the second experiment, IFN-γ was sequentially introduced to evaluate the sensibility of the array. […] Due to this conformation change, less AF555 emission light will excite the Cy5 molecules, leading to the observed increase [decrease] in AF555 [Cy5] pixel signals."}}}
{"binder": "GGGGTTGGTTGTGTTGGGTGTTGTGTCCAACCCCTTT (ssDNA, 5' Cy5, 3' biotin [1 (5' Cy5), 37 (3' biotin)])", "note": "[IFN-γ DNA aptamer]", "values": [{"measurement": "binding result", "setting": "Interferon gamma (IFN-γ)", "result": "binds"}, {"measurement": "binding result", "setting": "Streptavidin", "result": "no binding"}]}
